Holding throughout (experiment): purified protein
The test system of data set [1] is NC(=O)C1=CN([C@@H]2O[C@H](COP(=O)(O)OP(=O)(O)OC[C@H]3O[C@@H](n4cnc5c(N)ncnc54)[C@H](OP(=O)(O)O)[C@@H]3O)[C@@H](O)[C@H]2O)C=CC1. To be noted: reductive amination, 5 mM α-KG, 50 mM NH4Cl, 80 mM Tris-HCl pH 8.0, 25 °C, pH 8.0.
For data set [2], the system named is NC(=O)c1ccc[n+]([C@@H]2O[C@H](COP(=O)(O)OP(=O)(O)OC[C@H]3O[C@@H](n4cnc5c(N)ncnc54)[C@H](OP(=O)(O)O)[C@@H]3O)[C@@H](O)[C@H]2O)c1. To be noted: oxidative deamination, 150 mM L-Glu, 80 mM imidazole pH 6.0, 25 °C, pH 6.0.
The next data set concerns O=C(O)CCC(=O)C(=O)O. As to conditions: reductive amination, 0.2 mM NADH, 50 mM NH4Cl, 80 mM Tris-HCl pH 8.0, 25 °C, pH 8.0.
Data set [3] deals with NC(=O)C1=CN([C@@H]2O[C@H](COP(=O)(O)OP(=O)(O)OC[C@H]3O[C@@H](n4cnc5c(N)ncnc54)[C@H](O)[C@@H]3O)[C@@H](O)[C@H]2O)C=CC1. As to conditions: reductive amination, 5 mM α-KG, 50 mM NH4Cl, 80 mM Tris-HCl pH 8.0, 25 °C, pH 8.0.
Data set [4] has as its system NC(=O)c1ccc[n+]([C@@H]2O[C@H](COP(=O)(O)OP(=O)(O)OC[C@H]3O[C@@H](n4cnc5c(N)ncnc54)[C@H](O)[C@@H]3O)[C@@H](O)[C@H]2O)c1. As to conditions: oxidative deamination, 150 mM L-Glu, 80 mM CHES pH 9.5, 25 °C, pH 9.5.

Broadly, the Km is the concentration of substrate that gives half-maximal velocity. Usually Vmax stands for the rate approached at saturating substrate. As usually defined, the kcat is the maximal rate divided by the concentration of active sites. Broadly, the kcat/Km is the turnover number divided by the Michaelis constant.

In the case of GdhPa (Pantoea ananatis LMG 5342), the Km in data set [1] was determined as 78 ± 17 µM; in data set [2], 440 ± 50 µM; in the data set with O=C(O)CCC(=O)C(=O)O it was 1300 ± 210 µM; in data set [3] it was 70 ± 14 µM; in data set [4] it was 900 ± 60 µM. Moreover, the Vmax in data set [1] is 6.29 µmol/min/mg; in data set [2], 0.67 µmol/min/mg; with O=C(O)CCC(=O)C(=O)O, 5.93 µmol/min/mg; in data set [3] it was 5.43 µmol/min/mg; in data set [4] it was 11.6 µmol/min/mg. The kcat in data set [1] was 4.87 s⁻¹; in data set [2], 0.52 s⁻¹; in the data set with O=C(O)CCC(=O)C(=O)O, 4.6 s⁻¹; in data set [3], 4.21 s⁻¹; in data set [4] it was 8.97 s⁻¹. The kcat/Km in data set [1] came to 62500 M⁻¹ s⁻¹; in data set [2] it was 1180 M⁻¹ s⁻¹; in the data set on O=C(O)CCC(=O)C(=O)O, 3540 M⁻¹ s⁻¹; in data set [3], 60100 M⁻¹ s⁻¹; in data set [4] it was 9960 M⁻¹ s⁻¹.

Source of the values: PMC12364357, “Glutamate dehydrogenase from Pantoea ananatis: A new bacterial enzyme with dual coenzyme specificity” (PLOS One, 2025).
